Reference: the supplement of paper PMC10567573

B1: EIF5 (parent)
chain: KQTIGNSCKACGYRGMLDTHHKLC
B2: TFE3 (parent)
chain: FPSDHLGDLGDPFHLGLEDILMEE

Variants of: B1
Experiment: protein stability index of a GFP-peptide fusion (GPS, HEK-293T) (PSI 1-6); higher = more stable
Settings: c terminus: a fixed tail appended
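Further: lentivirally expressed fusions sorted by FACS into six bins by GFP to DsRed ratio, PSI derived from sequencing read proportions per bin multiplied by bin number.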

| Variant | protein stability index |
| --- | --- |
| KQTIGNSCKACGYRGMLDTHHKMC [L23M] | 3.42 |
| KQTIGNSCKACGYRGMQDTHHKLC [L17Q] | 3.85 |
| KQTIGNSCKACTYRGMLDTHHKLC [G12T] | 2.5 |
| KQTIGNSCKACEYRGMLDTHHKLC [G12E] | 2.93 |
| KQTIGNSCKACHYRGMLDTHHKLC [G12H] | 2.36 |
| KQTIGNSCKACGYRGMLDTHVKLC [H21V] | 3.29 |
| KQTIGNSCKACGYRGMLDTHEKLC [H21E] | 3.21 |
| KQTIGNSCKACGYRGMLDTHKKLC [H21K] | 3.02 |
| KQPIGNSCKACGYRGMLDTHHKLC [T3P] | 3.66 |
| KQTMGNSCKACGYRGMLDTHHKLC [I4M] | 3.63 |
| KQTWGNSCKACGYRGMLDTHHKLC [I4W] | 2.82 |
| KQTIGNSCKACGYRGMLDTHHKLA [C24A] | 1.99 |
| KQTIGNSCKACGYRGMLDTWHKLC [H20W] | 2.48 |
| KQTIGNSCKWCGYRGMLDTHHKLC [A10W] | 3.01 |
| KQTIGNSCKPCGYRGMLDTHHKLC [A10P] | 2.63 |
| KQTIGNSCKACGYRGMLKTHHKLC [D18K] | 2.46 |
| KQTIGNSCLACGYRGMLDTHHKLC [K9L] | 2.6 |

| Variant | protein stability index |
| --- | --- |
| KQTIGNWCKACGYRGMLDTHHKLC [S7W] | 2.64 |
| NQTIGNSCKACGYRGMLDTHHKLC [K1N] | 3.22 |
| FQTIGNSCKACGYRGMLDTHHKLC [K1F] | 2.55 |
| KQTIGNSCKACGYRGMLDSHHKLC [T19S] | 3.1 |
| KQTIGNSCKACGYRGMLDMHHKLC [T19M] | 3.03 |
| KQTIGNSCKACGYRGMLDAHHKLC [T19A] | 3.29 |
| KKTIGNSCKACGYRGMLDTHHKLC [Q2K] | 3.18 |
| KPTIGNSCKACGYRGMLDTHHKLC [Q2P] | 3.5 |
| KQTIGNSCKACGYRGMLDTHHGLC [K22G] | 2.52 |
| KQTIGNSCKACGYRGMLDTHHALC [K22A] | 2.77 |
| KQTIGNSCKACGYRGMLDTHHQLC [K22Q] | 2.76 |
| KQTIGNSCKACGYRGCLDTHHKLC [M16C] | 3.75 |
| KQTIGNSCKACGYRGSLDTHHKLC [M16S] | 3.8 |
| KQTIGNSCKACGYRGILDTHHKLC [M16I] | 3.07 |
| KQTIGNSCKAYGYRGMLDTHHKLC [C11Y] | 2.4 |
| KQTIGNSCKANGYRGMLDTHHKLC [C11N] | 1.94 |

Variants of: B2
Experiment: as above
Settings: c terminus: a fixed tail appended

| Variant | protein stability index |
| --- | --- |
| FPNDHLGDLGDPFHLGLEDILMEE [S3N] | 3.16 |
| FPLDHLGDLGDPFHLGLEDILMEE [S3L] | 3.04 |
| FPEDHLGDLGDPFHLGLEDILMEE [S3E] | 3.97 |
| FPPDHLGDLGDPFHLGLEDILMEE [S3P] | 3.79 |
| FPSDHLGDSGDPFHLGLEDILMEE [L9S] | 3.69 |
| FPSDHLGDLGDTFHLGLEDILMEE [P12T] | 4.24 |
| FPSDHLGDLGDNFHLGLEDILMEE [P12N] | 4.3 |
| FPSDHLGDLGDVFHLGLEDILMEE [P12V] | 3.5 |
| YPSDHLGDLGDPFHLGLEDILMEE [F1Y] | 3.3 |
| FPSDHLGDLGDPFHLGLEDILMEC [E24C] | 2.96 |
| FPSDHLGDLGDPFHLGLEDILMEG [E24G] | 2.91 |
| FPSDHLGDLGDPFHLGLEDILMEA [E24A] | 2.64 |
| FPSDHLGPLGDPFHLGLEDILMEE [D8P] | 3.31 |
| FPSDHLGCLGDPFHLGLEDILMEE [D8C] | 2.88 |
| FPSDHLGVLGDPFHLGLEDILMEE [D8V] | 3.1 |
| FPSDHLGSLGDPFHLGLEDILMEE [D8S] | 3.19 |
| FPSDHLGDLGDPFHLGLECILMEE [D19C] | 2.91 |
| FPSDHLGDLGDPFHLGLEQILMEE [D19Q] | 2.83 |
| FPSVHLGDLGDPFHLGLEDILMEE [D4V] | 2.59 |
| FPSGHLGDLGDPFHLGLEDILMEE [D4G] | 2.49 |
| FPSYHLGDLGDPFHLGLEDILMEE [D4Y] | 2.75 |

| Variant | protein stability index |
| --- | --- |
| FPSDHHGDLGDPFHLGLEDILMEE [L6H] | 3.98 |
| FPSDHEGDLGDPFHLGLEDILMEE [L6E] | 3.96 |
| FPSDHAGDLGDPFHLGLEDILMEE [L6A] | 3.69 |
| FPSDHLGDLGDPFHLGLEDILMCE [E23C] | 2.03 |
| FPSDHLGDLGDPFHLGLEDCLMEE [I20C] | 3.84 |
| FPSDHLGDLGDPFHLGLEDSLMEE [I20S] | 3.7 |
| FPSDHLGDLGYPFHLGLEDILMEE [D11Y] | 2.67 |
| FPSDHLGDLGHPFHLGLEDILMEE [D11H] | 2.27 |
| FPSDHLGDLGDPFHAGLEDILMEE [L15A] | 4.29 |
| FPSDHLGDLGDPFHVGLEDILMEE [L15V] | 3.24 |
| FPSDHLGDLGDPFHLGLEDILAEE [M22A] | 3.31 |
| FPSDHLGDLGDPFHLGLEDILSEE [M22S] | 3.87 |
| FPSDHLGDLGDPFHLGLEDILTEE [M22T] | 3.72 |
| FPSDHLGDLGDPFHLGLEDILNEE [M22N] | 4.04 |
| FPSDHLGDLGDPFHLGLEDILWEE [M22W] | 3.16 |
| FPSDHLGDLGDPFHLGLEDILVEE [M22V] | 3.08 |
| FPSDHLGDLGDPRHLGLEDILMEE [F13R] | 4.74 |
| FPSDHLGDLGDPMHLGLEDILMEE [F13M] | 4.7 |
| FPSDHLGDLGDPEHLGLEDILMEE [F13E] | 5.21 |
| FPSDHLGDLGDPFPLGLEDILMEE [H14P] | 4.66 |
| FPSDHLGDLGDPFLLGLEDILMEE [H14L] | 3.38 |

| Variant | protein stability index |
| --- | --- |
| FPSDHLGDLGDPFHLPLEDILMEE [G16P] | 3.35 |
| FPSDSLGDLGDPFHLGLEDILMEE [H5S] | 3.81 |
| FPSDHLGDLGDPFHLGWEDILMEE [L17W] | 3.19 |
| FPSDHLGDLGDPFHLGVEDILMEE [L17V] | 3.09 |
| FPSDHLGDLGDPFHLGSEDILMEE [L17S] | 3.86 |
| FPSDHLGDLGDPFHLGLMDILMEE [E18M] | 2.62 |
| FPSDHLGDLGDPFHLGLCDILMEE [E18C] | 2.18 |
| FESDHLGDLGDPFHLGLEDILMEE [P2E] | 4.51 |
| FVSDHLGDLGDPFHLGLEDILMEE [P2V] | 1.5 |
| FDSDHLGDLGDPFHLGLEDILMEE [P2D] | 3.95 |
| FWSDHLGDLGDPFHLGLEDILMEE [P2W] | 2.04 |
| FPSDHLEDLGDPFHLGLEDILMEE [G7E] | 3.92 |
| FPSDHLRDLGDPFHLGLEDILMEE [G7R] | 3.36 |
| FPSDHLGDLGDPFHLGLEDIVMEE [L21V] | 3.4 |
| FPSDHLGDLGDPFHLGLEDIPMEE [L21P] | 4.18 |
| FPSDHLGDLADPFHLGLEDILMEE [G10A] | 3.41 |
| FPSDHLGDLNDPFHLGLEDILMEE [G10N] | 2.97 |
| FPSDHLGDLMDPFHLGLEDILMEE [G10M] | 3.33 |
| FPSDHLGDLKDPFHLGLEDILMEE [G10K] | 3.14 |
